Measurements from patent US20240010747A1, “ANTI-MRP4 (ENCODED BY ABCC4 GENE) ANTIBODIES AND USES THEREOF” (Kenjockety Biotechnology, Inc., priority 2020, published 2024).

T1: human ABCC4 (Homo sapiens, UniProt O15439)
T1 construct: expressed in transfected cells
T1 sequence (O15439 1-1325): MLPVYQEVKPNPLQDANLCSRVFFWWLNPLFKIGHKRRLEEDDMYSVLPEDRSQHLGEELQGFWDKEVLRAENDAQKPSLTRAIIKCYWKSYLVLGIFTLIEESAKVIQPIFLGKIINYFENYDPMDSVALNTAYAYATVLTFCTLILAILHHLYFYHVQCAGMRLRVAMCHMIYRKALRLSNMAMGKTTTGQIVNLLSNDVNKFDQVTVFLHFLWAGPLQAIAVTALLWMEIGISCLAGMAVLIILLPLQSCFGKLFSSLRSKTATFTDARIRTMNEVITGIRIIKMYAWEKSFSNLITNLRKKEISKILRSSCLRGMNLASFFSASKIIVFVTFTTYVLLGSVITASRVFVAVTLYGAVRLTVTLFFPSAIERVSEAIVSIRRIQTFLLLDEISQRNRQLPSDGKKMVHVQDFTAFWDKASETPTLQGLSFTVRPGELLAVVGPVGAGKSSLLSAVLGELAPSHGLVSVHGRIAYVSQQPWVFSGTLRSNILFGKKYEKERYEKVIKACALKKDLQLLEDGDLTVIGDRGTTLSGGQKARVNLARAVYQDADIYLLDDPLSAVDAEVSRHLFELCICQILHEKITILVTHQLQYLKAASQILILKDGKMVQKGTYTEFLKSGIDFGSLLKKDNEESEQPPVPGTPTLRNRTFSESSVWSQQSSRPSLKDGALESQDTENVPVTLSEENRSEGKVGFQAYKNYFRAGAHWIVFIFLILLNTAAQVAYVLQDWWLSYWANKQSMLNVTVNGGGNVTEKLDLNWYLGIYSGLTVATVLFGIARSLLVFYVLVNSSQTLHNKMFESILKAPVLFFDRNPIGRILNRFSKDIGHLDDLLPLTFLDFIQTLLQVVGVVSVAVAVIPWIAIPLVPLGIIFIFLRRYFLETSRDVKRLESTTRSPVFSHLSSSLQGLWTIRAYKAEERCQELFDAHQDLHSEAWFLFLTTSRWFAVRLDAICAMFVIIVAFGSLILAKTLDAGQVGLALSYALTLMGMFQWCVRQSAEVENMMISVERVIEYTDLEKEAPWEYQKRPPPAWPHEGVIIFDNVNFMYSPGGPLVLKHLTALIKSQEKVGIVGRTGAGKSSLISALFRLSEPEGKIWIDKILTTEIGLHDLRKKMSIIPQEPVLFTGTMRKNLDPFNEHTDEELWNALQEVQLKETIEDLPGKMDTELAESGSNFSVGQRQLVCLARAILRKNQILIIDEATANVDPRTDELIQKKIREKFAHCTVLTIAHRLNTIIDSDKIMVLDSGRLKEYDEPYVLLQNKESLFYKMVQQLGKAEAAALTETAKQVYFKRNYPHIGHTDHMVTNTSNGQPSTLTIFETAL


Experiments:
human ABCC4 [1] = biological target: T1, human ABCC4; assay: Flow cytometry (FACS) binding to C6 cells stably transfected to express human ABCC4 (Table 3 study); conditions: C6 cells stably transfected to express human ABCC4, FACS; Table 3
Procedure: (§1) Binding titration of recombinant antibodies to ABCC4 transfectants was performed by serial dilution of antibodies from about 666 nM. Diluted antibody in flow cytometry buffer was incubated with cells on ice for 30 min. After 2 washes with flow cytometry buffer, bound antibody was detected with PE-labeled F(ab′)2 fragment goat anti-human IgG (Jackson ImmunoResearch) diluted 1:200 in flow cytometry buffer and incubated with cells for 20 min on ice. After 2 washes with flow cytometry buffer fluorescence was measured on an Attune N×T flow cytometer. Data were analyzed with GraphPad Prism 8.0 software to determine EC50's.
(§2) Human embryonic kidney HEK 293T cells and murine C6 (ATCC CCL-107) were transfected with human or cynomolgus ABCC4 cDNA with C-terminal fused FLAG tag in a pMONO-hygro vector with Lipofectamine 3000 (Invitrogen #L3000001). The cells were treated with 0.2 mg/ml and 0.5 mg/ml hygromycin respectively for about 2 weeks while cultivated in DMEM and 10% FBS with 0.2 mg/ml hygromycin and 0.5 mg/ml hygromycin, respectively. The cells were washed with PBS, and stained with […] of anti-FLAG-PE after fixing and permeablization. Clones expressing ABCC4 were single-cell sorted into 200 μl DMEM with 10% FBS using a BD Aria FACS machine and cultivated in 96 well plates using standard techniques in an incubator at 37° C. and 5% CO 2. Two weeks later clones expressing high levels of ABCC4 were screened and amplified.
(§3) Antibody binding to cells was evaluated by flow cytometry. Murine C6 cells stably transfected to express human or cynomolgus ABCC4 were washed once in flow cytometry buffer (PBS+2% FBS+0.02% sodium azide), resuspended at 2×10^6 cells/mL in flow cytometry buffer, and dispensed into 96-well microtiter plates at 0.1 mL/well. Recombinant antibodies were added to cells at 5 ug/mL for initial binding confirmation, or serially diluted from 100 ug/mL in flow cytometry buffer. After incubating cells on ice for 30 min, cells were washed twice with flow cytometry buffer. Bound antibody was detected with PE-labeled F(ab′)2 fragment goat anti-human IgG (Jackson ImmunoResearch) and evaluated on an Attune N×T flow cytometer. EC50 is calculated to be the concentration of antibody that gives half maximal response.
(§4) Table 3 lists the following characteristics of the rat anti-ABCC4 antibodies tested: binding to C6 cells stably transfected to express human ABCC4 measured by FACS and binding to C6 cells stably transfected to express cynomolgus ABCC4 measured by FACS. Negative (−) is defined as maximum response (Rmax(MFI)) below background level. Positive (+) is defined as MFI>1000.

cynomolgus ABCC4 [2] = assay: Flow cytometry (FACS) binding to C6 cells stably transfected to express cynomolgus ABCC4 (Table 3 study); set-up: key to Cynomolgus ABCC4 binding: Negative (−) is defined as maximum response (Rmax(MFI)) below background level; Positive (+) is defined as MFI>1000; conditions: C6 cells stably transfected to express cynomolgus ABCC4, FACS; Table 3
Procedure: as §1, §2, §3, §4

human ABCC4 [3] = biological target: T1, human ABCC4; assay: Flow cytometry (FACS) binding to C6 cells stably transfected to express human ABCC4 (different experiment, Table 4); conditions: for Human ABCC4 binding: C6 cells stably transfected to express human ABCC4, FACS, different experiment, Table 4; for binding to human ABCC4 expressed on cell surface: Table 4 study, stated in words
In short: (§5)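 Murine C6 cells stably expressing FLAG-tagged human or cynomolgus ABCC4 incubated 30 min on ice with antibodies, either 5 ug/mL or serially diluted from 100 ug/mL, in PBS+2% FBS+0.02% azide. Detection with PE anti-human IgG F(ab′)2 by flow cytometry; EC50 at half-maximal MFI; negative below background, positive >3× background.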

cynomolgus ABCC4 [4] = assay: Flow cytometry (FACS) binding to C6 cells stably transfected to express cynomolgus ABCC4 (different experiment, different C6.cC4 cell line, Table 4); set-up: key to Cynomolgus ABCC4 binding: Negative (−)=Rmax (MFI) below background level; Positive (+)=MFI>3× background level; conditions: for binding to cynomolgus ABCC4 expressed on cell surface: Table 4 study, stated in words; for Cynomolgus ABCC4 binding: different C6.cC4 cell line, C6 cells stably transfected to express cynomolgus ABCC4, FACS, Table 4
In short: as §5

Human ABCC4 binding (human ABCC4 [1]) | Human ABCC4 binding (human ABCC4 [3]) | binding to human ABCC4 expressed on cell surface (human ABCC4 [3]) | Molecule | Cynomolgus ABCC4 binding (cynomolgus ABCC4 [2]) | binding to cynomolgus ABCC4 expressed on cell surface (cynomolgus ABCC4 [4]) | Cynomolgus ABCC4 binding (cynomolgus ABCC4 [4])
+ (Positive (+) is defined as MFI>1000) | + (Positive (+)=MFI>3× background level) | bind to both human and cynomolgus ABCC4 | C4.972: anti-ABCC4 antibody raised in rats; VH SEQ ID NO: 11, VL SEQ ID NO: 132 (antibody, V domains shown) VH: EVQLKESGPGLVQPSETLSLTCTVSGFSLTSYNVHWVRQPPGKGLEWMGVMWSGGSTDYSSALKSRLSISRDTSKNQVFLKMNSLQSEDTTTYYCARDRGGYYYDGYPHDFVYWGQGVMVTVSS VL: EIVIIQSPALAVSLGQRATISCKTNQNVDYYGNSYIHWYQQKPGQQPKLLIYLASNLASGIPARFSGRGSGTDFTLTIDPVEADDPATYYCQQSRNLPFTFGSGTKLELK | − | bind to both human and cynomolgus ABCC4 | + (Positive (+)=MFI>3× background level)
+ (Positive (+) is defined as MFI>1000) | + (Positive (+)=MFI>3× background level) |  | C4.1000: anti-ABCC4 antibody raised in rats; VH SEQ ID NO: 18, VL SEQ ID NO: 138 (antibody, V domains shown) VH: QVQLTESGPGLVQPSQTLSLTCTISGFSLTSYGVSWVRQPPGKGLEWIGAIWSGGGTNYDSALKSRLSISRDTSKSQVLLKMNSLQTEDTAMYFCASGDWFAYWGQGTLVTVSS VL: DIQMTQSPPSLSASLGDKVTITCQASQNINKYIAWFQQKPGKAPRLLIRYTSTLESGTPSRFSGSGSGRDYSFSISTVESEDIASYYCLQYVNLYTFGAGTKLELK | − |  | −
+ (Positive (+) is defined as MFI>1000) | + (Positive (+)=MFI>3× background level) |  | C4.947: anti-ABCC4 antibody raised in rats; VH SEQ ID NO: 5, VL SEQ ID NO: 128 (antibody, V domains shown) VH: EVKLVESGGGLVQPGGSMRLSCAASGFTFTDFYMNWIRQPAGKAPEWLGFIRNKANAYTTAYNPSVKGRFTISRDNAQNMLYLQMNTLRAEDTATYYCARSNYGFDYWGQGVMVTVSS VL: DVAMTQTPPSLSVAIGQSVSISCKSSQSLVYSDGKTYLHWLLQSSGRSPKRLIYQVSNLDSGVPDRFSGTGSQKDFTLKISRVEAKDLGVYYCAQTTHFPFTFGSGTKLEIK | − |  | −
+ (Positive (+) is defined as MFI>1000) | + (Positive (+)=MFI>3× background level) |  | C4.991: anti-ABCC4 antibody raised in rats; VH SEQ ID NO: 16, VL SEQ ID NO: 136 (antibody, V domains shown) VH: EVKLVESGGGLVQPGRSLQVSCVASGFIFTDYYMAWVRQAPTKGLEWVAYINYDGGSTYYGDSVKGRFTISRDNAKSTLYLQMNSLRSEDMATYYCARRDYGSKFDNWGQGTLVTVSS VL: DIVMTQSPSLLSASVGDRVTLTCKGSQNINNFLAWYQQKRGEAPKLLIYKTNSLHTGIPSRFSGSGSGTEYTLTISSLHSEDLATYYCYQYNNGYTFGAGTKLELK | − |  | −
+ (Positive (+) is defined as MFI>1000) | + (Positive (+)=MFI>3× background level) | bind to both human and cynomolgus ABCC4 | C4.953: anti-ABCC4 antibody raised in rats; VH SEQ ID NO: 6, VL SEQ ID NO: 129 (antibody, V domains shown) VH: QVTLKESGPGILQPSQTLSLTCTFSGFSLSTYGMGVGWIRQPSGKALEWLANIWWDDDKSYNPSLKNRLTISKGTSNNQAFLKITSVDTADSATYHCARIGSGNSEFDYWGQGVMVTVSS VL: DVVLTQSPSSLSASLGDRVTITCRASQDIGNYLTWFQQKPGKSPRRMIYGATNLAAGVPSRFSGSRSGSDYSLTISSLESEDVADYHCLQSIQYPFTFGSGTKLEIK | − | bind to both human and cynomolgus ABCC4 | + (Positive (+)=MFI>3× background level)
+ (Positive (+) is defined as MFI>1000) | + (Positive (+)=MFI>3× background level) |  | C4.987: anti-ABCC4 antibody raised in rats; VH SEQ ID NO: 15, VL SEQ ID NO: 135 (antibody, V domains shown) VH: EVQLVESGGGLVQPGRSMKLSCAASGFTFSNYYMAWVRQAPTKGLEWVASISTGGGNTHYRDSVKGRFTISRDNAKSTLYLQMDSLRSEETATYYCARGEDRYKGVFAYWGQGTLVTVSS VL: DVQMTQSPSNLAASPGESVSINCKASKSISKYLAWYQQKPGKANKLLIYSGSTLQSGTPSRFSGSGSGTDFTLTIRNLEPEDFGLYYCQHHNEYPPTFGAGTKLELK | − |  | −
+ (Positive (+) is defined as MFI>1000) | + (Positive (+)=MFI>3× background level) |  | C4.985: anti-ABCC4 antibody raised in rats; VH SEQ ID NO: 14, VL SEQ ID NO: 134 (antibody, V domains shown) VH: EVQLVESGGGLVQPGRSLKLSCTASGFTFNKNWMAWIRQAPGKGLEWVASITNTGGNTYYPDSVKGRFTVSRDQTISTLYLQMNSLRSEDTATYFCTRERIGSGYYVMDAWGRGASVTVSS VL: DTVLTQSPALTVSPGERVTISCRASESVTSFMNWYQQKPGQQPKLLIYLASDLESGVPARFSGSGSGADFTLTIDPVEADDTATYYCQQSWIDPPTFGTGTKLELK | − |  | −
